# T1: Ago1p (WT) (Naumovozyma castellii, UniProt D5SHI8 2-1299)
# T1 sequence: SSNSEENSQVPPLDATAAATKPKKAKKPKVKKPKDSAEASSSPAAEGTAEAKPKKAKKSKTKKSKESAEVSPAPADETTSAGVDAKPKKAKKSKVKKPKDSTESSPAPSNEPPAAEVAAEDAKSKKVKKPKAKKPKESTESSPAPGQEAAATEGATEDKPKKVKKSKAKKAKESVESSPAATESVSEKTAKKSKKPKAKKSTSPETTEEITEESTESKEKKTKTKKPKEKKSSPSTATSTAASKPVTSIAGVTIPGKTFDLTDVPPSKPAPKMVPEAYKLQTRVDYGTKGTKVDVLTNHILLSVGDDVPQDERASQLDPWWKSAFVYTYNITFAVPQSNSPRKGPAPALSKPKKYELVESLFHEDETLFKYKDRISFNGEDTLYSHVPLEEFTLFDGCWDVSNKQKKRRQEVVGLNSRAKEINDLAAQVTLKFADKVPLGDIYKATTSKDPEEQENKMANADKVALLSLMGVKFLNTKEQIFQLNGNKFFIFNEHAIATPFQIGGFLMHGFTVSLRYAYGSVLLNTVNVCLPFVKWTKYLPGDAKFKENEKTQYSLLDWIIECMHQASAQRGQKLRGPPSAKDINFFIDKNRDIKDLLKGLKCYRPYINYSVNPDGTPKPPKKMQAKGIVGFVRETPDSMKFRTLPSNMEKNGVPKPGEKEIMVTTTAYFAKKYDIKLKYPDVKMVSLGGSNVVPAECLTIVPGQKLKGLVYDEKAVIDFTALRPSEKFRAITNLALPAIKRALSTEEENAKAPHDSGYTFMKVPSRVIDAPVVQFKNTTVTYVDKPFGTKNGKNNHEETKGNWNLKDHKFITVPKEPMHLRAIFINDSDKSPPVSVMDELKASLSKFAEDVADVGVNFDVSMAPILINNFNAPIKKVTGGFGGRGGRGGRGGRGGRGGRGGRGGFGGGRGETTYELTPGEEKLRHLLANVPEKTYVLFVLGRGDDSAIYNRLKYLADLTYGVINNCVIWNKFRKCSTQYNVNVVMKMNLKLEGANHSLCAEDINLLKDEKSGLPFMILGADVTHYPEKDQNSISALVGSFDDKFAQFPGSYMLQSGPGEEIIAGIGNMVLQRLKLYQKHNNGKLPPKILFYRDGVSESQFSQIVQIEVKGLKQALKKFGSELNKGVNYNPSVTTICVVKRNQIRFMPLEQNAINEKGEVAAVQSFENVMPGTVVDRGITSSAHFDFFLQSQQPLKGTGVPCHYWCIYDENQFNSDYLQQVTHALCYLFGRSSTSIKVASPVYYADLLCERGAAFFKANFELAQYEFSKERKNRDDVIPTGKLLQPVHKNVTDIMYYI
# Molecular target: T1, Ago1p (WT)
# Assay: filter binding (nitrocellulose-nylon); preincubated with 200 nM WT Xrn1p: bound siRNA enhanced; 50 mM Hepes pH 7.6, 300 mM potassium glutamate, 10 mM NaCl, 5 mM Mg acetate, 1 mM EGTA, 1 mM EDTA, 10% glycerol, 0.01% NP-40, 5 mM DTT, 30 C
# Settings: protein: recombinant; tags: N-terminal 3xFLAG-SUMO-TEV in expression construct; tag state after purification not in material; label: 32P 5' end of guide strand (S68); 21 bp, 2 nt 3' overhangs on both strands
binder,measurement,value
miR-20a siRNA duplex (dsRNA) RNA 1: UAAAGUGCUUAUAGUGCAGGUAG RNA 2: ACCUGCACUAUAAGCACUUUAAG,binding result,binds

# Reference: PMC7528652, “Xrn1p acts at multiple steps in the budding-yeast RNAi pathway to enhance the efficiency of silencing”
